Experimental findings from patent US20120014945A1 (ACADEMIA SINICA, published 2012) are described below.

Experiment [1] concerns the target DENV-2 (16681) envelope (E) protein (dengue virus type 2 (DENV-2 16681)) (UniProt P29990). Description: cell-based or functional assay.
Experiment [2] addresses T1, DENV-3 (H87) envelope (E) protein (dengue virus type 3 (DENV-3 H87), UniProt P27915 281-773).
T1 construct: whole, on cells
Description: ELISA on DENV-3-infected C6/36 cells. In general terms: ELISA stands for enzyme-linked immunosorbent assay.

In experiment [3] the target is T2, DENV-4 (H241) envelope (E) protein (dengue virus type 4 (DENV-4 H241), UniProt Q58HT7 280-774).
T2 construct: whole, on cells
Briefly: ELISA on DENV-4-infected C6/36 cells.

T2 sequence (Q58HT7 280-774): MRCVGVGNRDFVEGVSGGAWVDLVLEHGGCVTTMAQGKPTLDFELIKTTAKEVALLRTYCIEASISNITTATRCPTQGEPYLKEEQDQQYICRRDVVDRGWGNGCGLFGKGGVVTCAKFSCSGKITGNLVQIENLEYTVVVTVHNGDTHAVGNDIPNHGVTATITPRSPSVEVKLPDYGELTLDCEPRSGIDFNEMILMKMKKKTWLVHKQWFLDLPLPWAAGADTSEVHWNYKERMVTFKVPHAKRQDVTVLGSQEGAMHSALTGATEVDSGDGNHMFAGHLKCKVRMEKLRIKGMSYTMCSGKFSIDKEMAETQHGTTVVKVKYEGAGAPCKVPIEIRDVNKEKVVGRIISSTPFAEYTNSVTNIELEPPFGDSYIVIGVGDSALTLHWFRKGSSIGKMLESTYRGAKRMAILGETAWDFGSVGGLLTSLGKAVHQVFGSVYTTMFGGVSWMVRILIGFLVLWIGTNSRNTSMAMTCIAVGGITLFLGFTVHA

In experiment [1], 3H5 (antibody) gave a PRNT50 (µg/ml), D2 below 0.41 µg/mL and a concentration of complete inhibition of viral infection (PRNT) of 11 µg/mL. Molecule 4G2 (antibody) registered a PRNT50 (µg/ml), D2 in experiment [1] below 11 µg/mL. For normal mouse IgG (antibody), the neutralizing activity (PRNT) in experiment [1] is above 100 µg/mL.

B1: DB25-2 (antibody, V domains shown)
VH: QVQLKESGPGLVQPSQSLSITCTVSGFSLTDYGVHWIRQSPGKGLEWLGVIWRGGITDYNAAFMSRLSITKDNSKSQVFFKMDSLQPDDSAIYYCAKNFGTHYYGSNYGNFDYWGQGTTLTVSS
VL: VVMTQTPKFLLVSAGDRVTITCKASQSVSNDVAWYQQKPGQSPKLLIYYVSNRYSGVPDRFTGSGYGTDFTFTINTVQAEDLAVYFCQQDYSSPYTFGGGTKLEIK
As to B1, the binding result in experiment [2] and in experiment [3] was “no binding (tested: A490 < 0.2 (MAb at 1 µg/ml))” in each case.
